Like-named read-outs stand apart in the source and are kept apart here.
How the values were obtained:
[1] = molecular target: TGF-β2TM, variant of TGF-β2 bearing K25R, I92V, and K94R substitutions (human); assay: SPR
[2] = molecular target: Transforming growth factor β2 (TGF-β2), recombinant human (human) (UniProt P61812); assay: SPR
[3] = molecular target: Transforming growth factor β2 (TGF-β2), recombinant human (human) (UniProt P61812); assay: SPR; remark: listed apart in the source
[4] = molecular target: TGF-β2TM/TβRII binary complex (UniProt P37173); assay: SEC-MALS
[5] = molecular target: TGF-β2TM/TβRII binary complex (UniProt P37173); assay: SEC
[6] = molecular target: TGF-β2TM/TβRII binary complex (UniProt P37173); assay: ITC
[7] = molecular target: TGF-β2TM, variant of TGF-β2 bearing K25R, I92V, and K94R substitutions (human); assay: SPR; remark: listed apart in the source
[8] = molecular target: Transforming growth factor β2 (TGF-β2), recombinant human (human) (UniProt P61812); assay: ITC

Substance: C-terminal portion of the betaglycan zona pellucida domain (BG_(ZP-C)) (from UniProt P26342 589-761) (domain or fragment)
- Kd [1]: 0.325 µM
- apparent KD with 2 μM TβRII [2]: 0.6 µM
- Kd [3]: 0.45 µM

Substance: betaglycan orphan domain (BGO), produced in E. coli (from UniProt P26342 24-384) (domain or fragment)
- stoichiometry N (BGO per TGF-β2TM homodimer) [4]: 1
- stoichiometry N (BGO per TGF-β2TM homodimer) [5]: 1
- Kd [1]: 0.098 µM

Substance: betaglycan orphan domain (BGO), produced in HEK-293 expi cells (from UniProt P26342 24-383) (domain or fragment)
- Kd [6]: 0.082 µM
- dH [6]: -38.8 kJ mol^–1
- stoichiometry N [6]: 1.07 sites

Substance: betaglycan zona pellucida domain (BGZP) (from UniProt P26342 450-761) (domain or fragment)
- Kd [1]: 0.287 µM
- apparent KD with 4 μM TβRII [2]: 0.6 µM
- Kd [7]: 0.29 µM
- Kd [3]: 0.45 µM

Substance: full-length betaglycan extracellular domain (BG_(O-ZP)) (from UniProt P26342 24-761) (domain or fragment)
- Kd [8]: 0.109 µM
- dH [8]: -52.6 kJ mol^–1
- stoichiometry N [8]: 1.04 sites
- stoichiometry N (BG (O-ZP) per TGF-β2TM homodimer) [4]: 1
- stoichiometry N (BG (O-ZP) per TGF-β2TM homodimer) [5]: 1
- Kd [1]: 0.0055 µM

Reference: publication PMC5551644
